{"source": "patent US20150246946A1", "about": "“PEPTIDES AND METHODS FOR TREATING CANCER” (AGENCY FOR SCIENCE, TECHNOLOGY AND RESEARCH, priority 2012, published 2015)", "key": {"[1]": {"tested_on": "p53 null thymocytes", "assay": "cell viability in mouse thymocytes, p53 null", "format": "cell-based, mice", "settings": "high doses, 24 hours, annexin V/PI"}, "[2]": {"biological_target": "T1, Mdm4 (1-125) (Homo sapiens, UniProt O15151)", "T1 construct": "Mdm4 (1-125) were ligated into the GST fusion expression vector pGEX-6P-1; GST (N, cleaved yes); made in house; host or cells: E. coli BL21 DE3", "T1 sequence (O15151 1-125)": "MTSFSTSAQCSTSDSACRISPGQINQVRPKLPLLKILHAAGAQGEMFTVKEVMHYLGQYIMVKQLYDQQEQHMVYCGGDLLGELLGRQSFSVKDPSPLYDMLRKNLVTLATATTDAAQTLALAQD", "assay": "competitive fluorescence polarization/anisotropy, apparent Kd against Mdm4", "format": "binding", "description": "(§1) The cells expressing the GST fusion constructs were grown in LB medium at 37° C. to an OD600 of ˜0.6 and induction was started with 1 mM IPTG and carried out overnight at room temperature. Cells were harvested by centrifugation and the cell pellets were re-suspended in 50 mM Tris pH 8.0, 10% sucrose and were then sonicated. The sonicated sample was centrifuged for 60 mins at 17,000 g at 4° C. […] The column was then further washed by 6 volumes of wash buffer. Mdm2 and Mdm4 were then purified from the column by cleavage with Precission (GE Lifesciences) protease. 10 units of precission protease, in one column volume of PBS with 1 mM DTT buffer, were injected onto the column. The cleavage reaction was allowed to proceed overnight at 4° C. The cleaved protein was then eluted of the column with wash buffer. Protein fractions were analyzed with SDS page gel and concentrated using a Centricon (3.5 kDa MWCO) concentrator, Millipore. Mdm2 and Mdm4 protein samples were then dialyzed into a buffer solution containing 20 mM Bis-Tris, pH 6.5, 0.05M NaCl with 1 mM DTT and loaded onto a monoS column pre-equilibrated in buffer A (20 mM Bis-Tris, pH 6.5, 1 mM DTT). The column was then washed in 6 column volumes of buffer A and bound protein was eluted with a linear gradient of 1M NaCL over 25 column volumes. Protein fractions were analyzed with SDS page gel and concentrated using a Centricon (3.5 kDa MWCO) concentrator from Millipore.\n(§2) Apparent Kd values were determined for a variety of molecules via competitive fluorescence anisotropy experiments. […] The competing molecules were then titrated against complex of the FAM labelled peptide and protein. Apparent Kd values were determined by fitting the experimental data to the equations shown below:\n(§3) [L]st and [L]t denote labelled ligand and total unlabelled ligand input concentrations, respectively. Kd2 is the dissociation constant of the interaction between the unlabelled ligand and the protein. In all competitive types of experiments, it is assumed that [P]t>[L]st, otherwise considerable amounts of free labelled ligand would always be present and would interfere with measurements. […] The FAM-labelled peptide were dissolved in DMSO at 1 mM and diluted into experimental buffer. Readings were carried out with a Envision Multilabel Reader (PerkinElmer). […] All titrations were carried out in triplicate. Curve-fitting was carried out using Prism 4.0 (GraphPad)."}, "[3]": {"tested_on": "p53 responsive LacZ reporter gene in T22 cell line", "assay": "T22 p53 β-galactosidase based reporter assay", "format": "cell-based, murine", "settings": "18 hours, DMEM with 10% FBS", "description": "T22 cells, which were stably transfected with a p53 responsive […] reporter, were seeded into 96-well plate at a cell density of 8000 cells per well. […] Measurements were carried out using a Safire II multiplate reader (TECAN). Experiments were carried out independently twice."}, "[4]": {"biological_target": "T2, Mdm2 (1-125) (Homo sapiens, UniProt Q00987)", "T2 construct": "Mdm2 (1-125) and Mdm4 (1-125) were ligated into the GST fusion expression vector pGEX-6P-1; GST (N, cleaved yes); made in house; host or cells: E. coli BL21 DE3", "T2 sequence (Q00987 1-125)": "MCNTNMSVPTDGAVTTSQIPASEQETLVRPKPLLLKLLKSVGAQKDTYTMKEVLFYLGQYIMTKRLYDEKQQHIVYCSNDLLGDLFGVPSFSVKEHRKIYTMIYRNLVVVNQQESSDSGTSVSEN", "assay": "competitive fluorescence polarization/anisotropy, apparent Kd against Mdm2", "format": "binding", "description": "as §1, §2, §3"}, "[5]": {"biological_target": "T3, Mdm4 (1-125) (human, UniProt O15151 1-125)", "T3 construct": "range 1-125; also called MDMX; Hdm4", "T3 sequence (looked up)": "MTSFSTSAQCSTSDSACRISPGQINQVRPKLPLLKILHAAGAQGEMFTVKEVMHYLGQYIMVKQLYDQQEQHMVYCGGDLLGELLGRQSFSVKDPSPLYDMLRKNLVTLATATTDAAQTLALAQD", "assay": "apparent Kd, competitive fluorescence polarization; displacement of FAM-…-NH2 from Mdm4 (1-125)"}, "[6]": {"biological_target": "T4, Mdm2 (1-125) (human, UniProt Q00987 1-125)", "T4 construct": "range 1-125; also called Hdm2", "T4 sequence (Q00987 1-125 limits assumed)": "as the sequence (Q00987 1-125) above", "assay": "apparent Kd, competitive fluorescence polarization; displacement of FAM-…-NH2 from Mdm2 (1-125)"}, "[7]": {"biological_target": "T4, Mdm2 (1-125)", "assay": "apparent Kd, competitive fluorescence polarization; displacement of FAM-…-NH2 from Mdm2 (1-125)", "remark": "listed apart in the source"}, "[8]": {"biological_target": "T3, Mdm4 (1-125)", "assay": "apparent Kd, competitive fluorescence polarization; displacement of FAM-…-NH2 from Mdm4 (1-125)", "remark": "listed apart in the source"}}, "note": "Like-named read-outs stand apart in the source and are kept apart here. Where a SMILES comes first, the peptide text is derived from it. Bridges are numbered along the chain shown (N, C = ends). [ ]: non-standard residue; d: D form. Trp(6-Cl) = N[C@@H](Cc1c[nH]c2cc(Cl)ccc12)C(=O)O; dTrp(6-Cl) = N[C@H](Cc1c[nH]c2cc(Cl)ccc12)C(=O)O; R8 = C=CCCCCCC[C@@](C)(N)C(=O)O; S5 = C=CCCC[C@](C)(N)C(=O)O", "data": [{"molecule": "COc1ccc(C2=N[C@@H](c3ccc(Cl)cc3)[C@@H](c3ccc(Cl)cc3)N2C(=O)N2CCNC(=O)C2)c(OC(C)C)c1", "note": "[nutlin, reference compound]", "values": [{"measurement": "apoptosis in p53 null thymocytes", "setting": "[1]", "value": "caused apoptosis in p53 null thymocytes"}]}, {"molecule": "CC(=O)N[C@H](C(=O)N[C@@H](CO)C(=O)N[C@@H](Cc1ccccc1)C(=O)N[C@]1(C)CCCCCCC=CCCC[C@@](C)(C(N)=O)NC(=O)[C@H](CC(C)C)NC(=O)[C@H](CC(C)C)NC(=O)[C@H](CC(N)=O)NC(=O)[C@H](Cc2c[nH]c3ccccc23)NC(=O)[C@H](Cc2ccc(O)cc2)NC(=O)[C@H](CCC(=O)O)NC1=O)[C@@H](C)O", "note": "[sMTide-01, Ac-^1TSFXEYWNLLX^11-NH2] (Ac-TSF[R8]EYWNLL[S5]-NH2; staple 4-11)", "values": [{"measurement": "increase in Kd against Mdm4 in comparison to unstapled counterpart", "setting": "[2]; stapled vs unstapled peptide", "value": 4, "unit": "fold"}, {"measurement": "p53 transcriptional activity in T22 p53 reporter assay", "setting": "[3]", "value": "little activity"}, {"measurement": "increase in Kd against Mdm2 in comparison to unstapled counterpart", "setting": "[4]; stapled vs unstapled peptide", "value": "approximately 2 fold"}]}, {"molecule": "CC(=O)N[C@H](C(=O)N[C@@H](CO)C(=O)N[C@@H](Cc1ccccc1)C(=O)N[C@]1(C)CCCCCCC=CCCC[C@@](C)(C(N)=O)NC(=O)[C@H](CC(C)C)NC(=O)[C@H](CC(C)C)NC(=O)[C@H](C)NC(=O)[C@@H](Cc2c[nH]c3cc(Cl)ccc23)NC(=O)[C@H](Cc2ccc(O)cc2)NC(=O)[C@H](CCC(=O)O)NC1=O)[C@@H](C)O", "note": "[sMTide-02B, Ac-^1TSFXEY(D-6-Cl)WALLX^11-NH2]", "values": [{"measurement": "Mdm4 Kd", "setting": "[2]; apparent Kd, competitive fluorescence polarization, Mdm4 75 nM, FAM peptide 50 nM", "value": "attenuated"}, {"measurement": "p53 transcriptional activity in T22 p53 reporter assay", "setting": "[3]", "value": "negligible activity"}]}, {"molecule": "CC(=O)N[C@@H](CO)C(=O)N[C@@H](Cc1ccccc1)C(=O)N[C@]1(C)CCCCCCC=CCCC[C@@](C)(C(N)=O)NC(=O)[C@H](CC(C)C)NC(=O)[C@H](CC(C)C)NC(=O)[C@H](C)NC(=O)[C@H](Cc2c[nH]c3ccccc23)NC(=O)[C@H](Cc2ccc(O)cc2)NC(=O)[C@H](CCC(=O)O)NC1=O", "note": "[sMTide-04, Ac-^2SFXEYWALLX^11-NH2] (Ac-SF[R8]EYWALL[S5]-NH2; staple 3-10)", "values": [{"measurement": "preference between Mdm2 and Mdm4 in binding", "setting": "[4]; comparison of apparent Kds", "value": "interacted more tightly with Mdm4 than with Mdm2"}]}, {"molecule": "CC(=O)N[C@H](C(=O)N[C@@H](CO)C(=O)N[C@@H](Cc1ccccc1)C(=O)N[C@]1(C)CCCCCCC=CCCC[C@@](C)(C(N)=O)NC(=O)[C@H](CC(C)C)NC(=O)[C@H](CC(C)C)NC(=O)[C@H](Cc2ccccc2)NC(=O)[C@H](Cc2c[nH]c3ccccc23)NC(=O)[C@H](Cc2ccc(O)cc2)NC(=O)[C@H](CCC(=O)O)NC1=O)[C@@H](C)O", "note": "[sMTide-07, Ac-^1TSFXEYWFLLX^11-NH2] (Ac-TSF[R8]EYWFLL[S5]-NH2; staple 4-11)", "values": [{"measurement": "p53 transcriptional activity in T22 p53 reporter assay", "setting": "[3]", "value": "diminish the ability of sMTide-07 to induce p53, compared to sMTide-06"}]}, {"molecule": "Ac-TSFAEYWNLLS-NH2 (Linear phage-derived peptide)", "note": "[MTide-01]", "values": [{"measurement": "Kd", "setting": "[5]", "value": 33.2, "unit": "nM"}, {"measurement": "Kd", "setting": "[6]", "value": 46.3, "unit": "nM"}]}, {"molecule": "Ac-TSF[R8]EY[Trp(6-Cl)]ALL[S5]-NH2 (staple 4-11, also called Ac-TSFXEY(L-6-Cl)WALLX-NH2; L-isomer)", "note": "[sMTide-02A]", "values": [{"measurement": "Kd", "setting": "[5]", "value": 1360, "unit": "nM"}]}, {"molecule": "Ac-TSF[R8]EY[dTrp(6-Cl)]ALL[S5]-NH2 (staple 4-11, also called Ac-TSFXEY(D-6-Cl)WALLX-NH2; D-isomer)", "note": "[sMTide-02B]", "values": [{"measurement": "Kd", "setting": "[5]", "value": 2160, "unit": "nM"}]}, {"molecule": "Ac-SF[R8]EYWALL[S5]-NH2 (staple 3-10; SMILES CC(=O)N[C@@H](CO)C(=O)N[C@@H](Cc1ccccc1)C(=O)N[C@]1(C)CCCCCCC=CCCC[C@@](C)(C(N)=O)NC(=O)[C@H](CC(C)C)NC(=O)[C@H](CC(C)C)NC(=O)[C@H](C)NC(=O)[C@H](Cc2c[nH]c3ccccc23)NC(=O)[C@H](Cc2ccc(O)cc2)NC(=O)[C@H](CCC(=O)O)NC1=O, also called Ac-SFXEYWALLX-NH2)", "note": "[sMTide-04]", "values": [{"measurement": "Kd", "setting": "[7]", "value": 104, "unit": "nM"}, {"measurement": "Kd", "setting": "[8]", "value": 63, "unit": "nM"}]}, {"molecule": "Ac-TSF[R8]EYWKLL[S5]-NH2 (staple 4-11; SMILES CC(=O)N[C@H](C(=O)N[C@@H](CO)C(=O)N[C@@H](Cc1ccccc1)C(=O)N[C@]1(C)CCCCCCC=CCCC[C@@](C)(C(N)=O)NC(=O)[C@H](CC(C)C)NC(=O)[C@H](CC(C)C)NC(=O)[C@H](CCCCN)NC(=O)[C@H](Cc2c[nH]c3ccccc23)NC(=O)[C@H](Cc2ccc(O)cc2)NC(=O)[C@H](CCC(=O)O)NC1=O)[C@@H](C)O, also called Ac-TSFXEYWKLLX-NH2)", "note": "[sMTide-05]", "values": [{"measurement": "Kd", "setting": "[7]", "value": 26.3, "unit": "nM"}, {"measurement": "Kd", "setting": "[8]", "value": 29.9, "unit": "nM"}]}, {"molecule": "Ac-TSF[R8]EYWYLL[S5]-NH2 (staple 4-11; SMILES CC(=O)N[C@H](C(=O)N[C@@H](CO)C(=O)N[C@@H](Cc1ccccc1)C(=O)N[C@]1(C)CCCCCCC=CCCC[C@@](C)(C(N)=O)NC(=O)[C@H](CC(C)C)NC(=O)[C@H](CC(C)C)NC(=O)[C@H](Cc2ccc(O)cc2)NC(=O)[C@H](Cc2c[nH]c3ccccc23)NC(=O)[C@H](Cc2ccc(O)cc2)NC(=O)[C@H](CCC(=O)O)NC1=O)[C@@H](C)O, also called Ac-TSFXEYWYLLX-NH2)", "note": "[sMTide-06]", "values": [{"measurement": "Kd", "setting": "[7]", "value": 128, "unit": "nM"}, {"measurement": "Kd", "setting": "[8]", "value": 328, "unit": "nM"}]}, {"molecule": "Ac-TSF[R8]EYWFLL[S5]-NH2 (staple 4-11; SMILES CC(=O)N[C@H](C(=O)N[C@@H](CO)C(=O)N[C@@H](Cc1ccccc1)C(=O)N[C@]1(C)CCCCCCC=CCCC[C@@](C)(C(N)=O)NC(=O)[C@H](CC(C)C)NC(=O)[C@H](CC(C)C)NC(=O)[C@H](Cc2ccccc2)NC(=O)[C@H](Cc2c[nH]c3ccccc23)NC(=O)[C@H](Cc2ccc(O)cc2)NC(=O)[C@H](CCC(=O)O)NC1=O)[C@@H](C)O, also called Ac-TSFXEYWFLLX-NH2)", "note": "[sMTide-07]", "values": [{"measurement": "Kd", "setting": "[7]", "value": 175, "unit": "nM"}, {"measurement": "Kd", "setting": "[8]", "value": 394, "unit": "nM"}]}]}
